Laboratory results taken from patent US20250269018A1, “COMBINED CANCER THERAPY WITH AN EPITHELIAL CELL ADHESION MOLECULE (EPCAM) INHIBITOR AND A HEPATOCYTE GROWTH FACTOR RECEPTOR (HGFR) INHIBITOR” (ACADEMIA SINICA, priority 2021, published 2025).

Columns and labels:
HCT116-Luc cells = test: Orthotopic animal model, HCT116-Luc; details: EpAb2-6 15 mg/kg, crizotinib 20 mg/kg, FIG. 9D, 9E
Experimental: (§2) (FIG. 9C) Timeline of the experiment to evaluate EpAb2-6 and/or crizotinib in the in orthotopic animal models. (FIG. 9D) NOD/SCID mice received orthotopic implantation of HCT116-Luc cells and then were treated with control IgG (normal mouse IgG, NMIgG), crizotinib, EpAb2-6, or crizotinib combined with EpAb2-6 starting at 3 days after tumor inoculation (n=5). Tumor growth was monitored by examining bioluminescence with the IVIS 200 Imaging System. (FIG. 9E) HCT116-Luc tumor cells monitored by bioluminescence quantification. […] (FIG. 9H) NOD/SCID mice were orthotopically implanted with HT29-Luc cells and then treated with control IgG, crizotinib, EpAb2-6, or crizotinib combined with EpAb2-6 starting at 3 days after tumor inoculation (n=5). Tumor growth was monitored by examining bioluminescence with an IVIS 200 Imaging System. (FIG. 9I) HT29-Luc tumor cells monitored by bioluminescence quantification.
(§3) Orthotopic tumor models were created as previously reported (Chen et al., 2020). Briefly, NSCID mice were used for orthotopic implantation of HCT116 cells previously infected with Lenti-luc virus (lentivirus containing luciferase gene). […] Tumor development was monitored by bioluminescence imaging. […] Tumor progression was monitored by quantification of bioluminescence. Mouse survival was also monitored.

HT29-Luc cells = test: Orthotopic animal model, HT29-Luc; details: FIG. 9H, 9I
Experimental: as §2, §3

HCT116 or HT29 = test: Metastatic and orthotopic animal models of colon cancer, overall statements
Experimental: Colon cancer HCT116 or HT29 (5×10^6 cells/mouse) in PBS were injected into 4-6-week-old female NOD/SCID mice through the tail vein. Mice were then randomly assigned to different treatment groups by body weight. After 3 days, antibodies were administered through tail vein injection twice a week for four consecutive weeks. Crizotinib was administered daily by oral gavage for 5 days per week (treatment for four weeks). For the therapeutic study, tumor-bearing mice were treated with isotype control IgG1 (15 mg/kg), crizotinib (20 mg/kg), EpAb2-6 (15 mg/kg), or crizotinib (20 mg/kg) combined with EpAb2-6 (15 mg/kg). Mouse survival rate were measured.
Orthotopic tumor models were created as previously reported (Chen et al., 2020). Briefly, NSCID mice were used for orthotopic implantation of HCT116 cells previously infected with Lenti-luc virus (lentivirus containing luciferase gene). The mice were anesthetized by i.p. injection ofAvertin, 2,2,2-Tribromo-ethanol (Sigma-Aldrich) at a dose of 250 mg/kg. Tumor development was monitored by bioluminescence imaging. For the therapeutic study, tumor-bearing mice were treated with isotype control IgG1 (15 mg/kg), crizotinib (20 mg/kg), EpAb2-6 (15 mg/kg), or crizotinib (20 mg/kg) combined with EpAb2-6 (15 mg/kg). Tumor progression was monitored by quantification of bioluminescence. Mouse survival was also monitored.

EpCAM and HGFR = biological target: T1, EpCAM and HGFR (Homo sapiens, UniProt P16422); test: Immunoprecipitation of endogenous EpCAM and HGFR in HCT116 cells; format: cell-based; details: 6 h treatment, IP of endogenous proteins, FIG. 6E
T1 construct: as detected by IP of endogenous proteins in HCT116 cells; endogenous in cells; host or cells: HCT116
T1 sequence (P16422 24-314): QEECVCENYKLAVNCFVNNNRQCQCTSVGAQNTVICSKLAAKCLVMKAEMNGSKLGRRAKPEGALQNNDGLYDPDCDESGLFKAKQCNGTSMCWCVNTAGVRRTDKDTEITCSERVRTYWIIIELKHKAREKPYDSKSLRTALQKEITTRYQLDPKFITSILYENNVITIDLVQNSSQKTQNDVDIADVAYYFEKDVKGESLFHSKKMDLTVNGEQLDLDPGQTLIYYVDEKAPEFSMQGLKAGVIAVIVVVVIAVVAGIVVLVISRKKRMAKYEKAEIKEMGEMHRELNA
Experimental: (§1) FIGS. 6A to 6J. EpAb2-6 inhibits EpCAM and HGFR signaling and promotes active β-catenin and Snail protein degradation via activating GSK3β. (FIG. 6A) HCT116 cells were treated with 10 μg/ml control IgG (normal mouse IgG, NMIgG) or mouse EpAb2-6 (EpAb2-6) for 16 h, followed by treatment with EpEX-His (50 nM) for 15 min. Levels of phosphorylated HGFR, AKT, FAK, GSK3β, ERK, ADAM17, and presenilin 2 were examined by Western blotting. (FIG. 6B) HCT116 cells were treated with 10 μg/ml control IgG or mouse EpAb2-6 for 16 h, followed by treatment without or with HGF (0.5 nM) for 15 min. Levels of phosphorylated HGFR, AKT, and ERK were examined by Western blotting. HCT116 cells were treated with mouse EpAb2-6 (10 μg/ml) and HGF (0.5 nM). […] (FIG. 6D) Cell invasion was assessed by a Transwell assay with matrigel after 24 h. […] (FIG. 6F) EpEX-His (2 μg/ml) co-treated with 1 μg IgG or EpAb2-6 was added to HGFR-Fc-coated (1 μg/ml) ELISA plates and detected by TMB colorimetric peroxidase assay. (FIG. 6G) EMT associated protein levels were detected by Western blotting in HCT116 cells treated with NMIgG or EpAb2-6 for 24 h. (FIG. 6H) Protein expression was analyzed by Western blotting in HCT116 cells after treatment with EpAb2-6 and 2 μM GSK3β inhibitor (BIO) for 24 h. Quantification of the normalized protein expression in the bottom panel. […]

EpCAM = biological target: T2, EpCAM (Homo sapiens, UniProt P16422); test: Antibody binding to EpCAM wild-type and mutants expressed in HEK293T cells (immunofluorescence, flow cytometry, cellular ELISA); details: conclusion from deletion and point mutants
T2 sequence (P16422 24-314): T1 sequence (P16422 24-314)
Experimental: FIGS. 8A to 8G. EpAb2-6 binds to both EGF-like domain I and II of EpCAM. HEK293T cells were transfected with full length or EGF like-domain deletion mutant EpCAM-V5. Antibody binding was assessed by (FIG. 8A) Western blotting, (FIG. 8B) flow cytometry, and (FIG. 8C) immunofluorescence. (FIG. 8D) EpCAM mutants were constructed with amino acid substitutions in the EGF-I (Y32A) and EGF-II (L94A, Y95A, or D96A) domains. EpCAM wild-type and mutant proteins were expressed in HEK293T cells. Binding of MT201, EpAb2-6 and EpAb23-1 to EpCAM wild-type and mutants were evaluated by (FIG. 8E) immunofluorescence, (FIG. 8F) flow cytometry, and (FIG. 8G) cellular ELISA.
A previous study identified the binding epitope of EpAb2-6 antibody as the LYD motif in EpCAM, which corresponds to amino acid residues 94-96; in particular, residue 95 (Y95) plays a major role in EpAb2-6 binding (Liao et al., 2015). […] Therefore, we wanted to determine whether the antibody binds to EpCAM at both EGF-like domains of EpEX (FIG. 8A, FIG. 8B, FIG. 8C). To confirm that EpAb2-6 recognizes the LYD motif in EpCAM, we constructed cDNA sequences encoding the first (aa 27-59; EGF-I domain) and second (aa 66-135; EGF-II/TY domain) EGF-like repeats of EpCAM. PCR-based site-directed mutagenesis was then used to introduce mutations into each domain (FIG. 8D). The reactivity of EpAb2-6 antibody toward these EpCAM mutants was evaluated by immunofluorescence (FIG. 8E), flow cytometry (FIG. 8F), and cellular ELISA (FIG. 8G).

EpEX binding to HGFR = biological target: T3, EpEX binding to HGFR (Homo sapiens, UniProt P16422); test: ELISA of EpEX-His binding to HGFR-Fc-coated plates; details: EpEX-His 2 μg/ml with 1 μg antibody; HGFR-Fc 1 μg/ml coated; FIG. 6F
T3 construct: the soluble extracellular domain of EpCAM (EpEX); His; made in house; host or cells: Expi293
T3 sequence (P16422 24-265 limits assumed): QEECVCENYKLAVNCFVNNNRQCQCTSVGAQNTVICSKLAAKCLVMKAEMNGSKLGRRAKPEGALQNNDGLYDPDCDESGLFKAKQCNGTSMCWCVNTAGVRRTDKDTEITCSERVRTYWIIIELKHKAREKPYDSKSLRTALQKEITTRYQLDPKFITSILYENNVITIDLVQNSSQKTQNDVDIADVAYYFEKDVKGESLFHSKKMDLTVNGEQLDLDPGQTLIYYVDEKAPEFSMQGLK
Experimental: as §1

B1: EpAb2-6: anti-EpCAM neutralizing monoclonal antibody targeting EpEX; VH SEQ ID NO: 15, VL SEQ ID NO: 16 (antibody, listed as Homo sapiens, V domains shown)
VH: VKLQESGPELKKPGETVKISCKASGYTFTDYSMHWVKQAPGKGLKWMGWINTETGEPTYADDFKGRFAFSLETSASTAYLQINNLKNEDTATYFCARTAVYWGQGTTVTVSS
VL: DIQMTQSPSSLSASLGERVSLTCRASQEISVSLSWLQQEPDGTIKRLIYATSTLDSGVPKRFSGSRSGSDYSLTISSLESEDFVDYYCLQYASYPWTFGGGTKLEIKRADAAPTVS
bioluminescence intensities (HCT116-Luc cells): significantly decreased compared to the control IgG or crizotinib alone groups | bioluminescence intensities (HT29-Luc cells): significantly decreased compared to the control IgG or crizotinib alone groups | survival (HCT116 or HT29): higher median survival than the control IgG- or crizotinib-treated groups | tumor progression (HCT116 or HT29): much slower tumor progression | association between EpCAM and HGFR (EpCAM and HGFR): decreased the association between EpCAM and HGFR | EpEX domains and residues bound (EpCAM): binds to the EGF-I and EGF-II domains of EpEX, respectively targeting amino acid residues Y32 and Y95 | EpEX binding to HGFR (EpEX binding to HGFR): inhibit EpEX binding to HGFR
